Assay results reported in IntAct's records for PubMed 29892012.

B1: Alpha-ketoglutarate-dependent dioxygenase alkB homolog 3 (Homo sapiens), Q96Q83 (parent)
chain: MEEKRRRARVQGAWAAPVKSQAIAQPATTAKSHLHQKPGQTWKNKEHHLSDREFVFKEPQQVVRRAPEPRVIDREGVYEISLSPTGVSRVCLYPGFVDVKEADWILEQLCQDVPWKQRTGIREDITYQQPRLTAWYGELPYTYSRITMEPNPHWHPVLRTLKNRIEENTGHTFNSLLCNLYRNEKDSVDWHSDDEPSLGRCPIIASLSFGATRTFEMRKKPPPEENGDYTYVERVKIPLDHGTLLIMEGATQADWQHRVPKEYHSREPRVNLTFRTVYPDPRGAPW
B2: Genetic suppressor element 1 (Homo sapiens), Q14687 (parent)
chain: MKGMSHEPKSPSLGMLSTATRTTATVNPLTPSPLNGALVPSGSPATSSALSAQAAPSSSFAAALRKLAKQAEEPRGSSLSSESSPVSSPATNHSSPASTPKRVPMGPIIVPPGGHSVPSTPPVVTIAPTKTVNGVWRSESRQDAGSRSSSGGRERLIVEPPLPQEKAGGPAIPSHLLSTPYPFGLSPSSVVQDSRFPPLNLQRPVHHVVPPSTVTEDYLRSFRPYHTTDDLRMSSLPPLGLDPATAAAYYHPSYLAPHPFPHPAFRMDDSYCLSALRSPFYPIPTPGSLPPLHPSAMHLHLSGVRYPPELSHSSLAALHSERMSGLSAERLQMDEELRREREREREREREREADREREKEREREREKEREQEKEREREKERERELERQREQRAREKELLAAKALEPSFLPVAELHGLRGHATEERGKPSEQLTPTRAEKLKDAGLQAPKPVQHPLHPVPTPHHTVPSLISNHGIFSLPSSSAATALLIQRTNEEEKWLARQRRLRQEKEDRQSQVSEFRQQVLEQHLDMGRPPVPAEAEHRPESTTRPGPNRHEPGGRDPPQHFGGPPPLISPKPQLHAAPTALWNPVSLMDNTLETRRAESHSLHSHPAAFEPSRQAAVPLVKVERVFCPEKAEEGPRKREPAPLDKYQPPPPPPREGGSLEHQPFLPGPGPFLAELEKSTQTILGQQRASLPQAATFGELSGPLKPGSPYRPPVPRAPDPAYIYDEFLQQRRRLVSKLDLEERRRREAQEKGYYYDLDDSYDESDEEEVRAHLRCVAEQPPLKLDTSSEKLEFLQLFGLTTQQQKEELVAQKRRKRRRMLRERSPSPPTIQSKRQTPSPRLALSTRYSPDEMNNSPNFEEKKKFLTIFNLTHISAEKRKDKERLVEMLRAMKQKALSAAVADSLTNSPRDSPAVSLSEPATQQASLDVEKPVGVAASLSDIPKAAEPGKLEQVRPQELSRVQELAPASGEKARLSEAPGGKKSLSMLHYIRGAAPKDIPVPLSHSTNGKSKPWEPFVAEEFAHQFHESVLQSTQKALQKHKGSVAVLSAEQNHKVDTSVHYNIPELQSSSRAPPPQHNGQQEPPTARKGPPTQELDRDSEEEEEEDDEDGEDEEEVPKRKWQGIEAVFEAYQEHIEEQNLERQVLQTQCRRLEARHYSLSLTAEQLSHSVAELRSQKQKMVSERERLQAELDHLRKCLALPAMHWPRGYLKGYPR
partner: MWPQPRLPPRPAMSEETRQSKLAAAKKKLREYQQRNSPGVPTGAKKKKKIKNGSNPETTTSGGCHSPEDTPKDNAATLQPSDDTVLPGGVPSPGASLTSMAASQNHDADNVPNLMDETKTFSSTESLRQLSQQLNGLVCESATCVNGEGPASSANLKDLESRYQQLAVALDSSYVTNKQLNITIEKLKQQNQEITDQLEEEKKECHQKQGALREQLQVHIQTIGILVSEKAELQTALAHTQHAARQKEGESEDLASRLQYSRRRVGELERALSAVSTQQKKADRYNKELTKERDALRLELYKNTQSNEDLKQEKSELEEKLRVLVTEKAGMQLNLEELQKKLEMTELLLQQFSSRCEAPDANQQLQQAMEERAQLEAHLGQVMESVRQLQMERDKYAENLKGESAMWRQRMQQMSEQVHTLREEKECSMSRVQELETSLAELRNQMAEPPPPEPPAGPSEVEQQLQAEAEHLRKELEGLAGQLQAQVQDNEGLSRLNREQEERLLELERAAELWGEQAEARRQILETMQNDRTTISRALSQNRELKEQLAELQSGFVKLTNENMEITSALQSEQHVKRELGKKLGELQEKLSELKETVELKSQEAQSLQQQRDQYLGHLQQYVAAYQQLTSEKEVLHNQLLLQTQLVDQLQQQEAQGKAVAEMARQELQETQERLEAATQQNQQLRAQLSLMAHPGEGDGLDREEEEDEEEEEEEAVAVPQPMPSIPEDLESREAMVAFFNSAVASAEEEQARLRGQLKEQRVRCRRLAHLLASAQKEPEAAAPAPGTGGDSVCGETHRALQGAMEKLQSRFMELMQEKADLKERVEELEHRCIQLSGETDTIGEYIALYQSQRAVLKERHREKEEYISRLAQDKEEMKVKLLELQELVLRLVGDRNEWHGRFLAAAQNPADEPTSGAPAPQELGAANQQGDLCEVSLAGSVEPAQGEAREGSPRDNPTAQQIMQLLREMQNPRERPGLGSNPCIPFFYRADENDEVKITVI
B3: Myotubularin-related protein 9 (Homo sapiens), Q96QG7 (parent)
chain: MEFAELIKTPRVDNVVLHRPFYPAVEGTLCLTGHHLILSSRQDNTEELWLLHSNIDAIDKRFVGSLGTIIIKCKDFRIIQLDIPGMEECLNIASSIEALSTLDSITLMYPFFYRPMFEVIEDGWHSFLPEQEFELYSSATSEWRLSYVNKEFAVCPSYPPIVTVPKSIDDEALRKVATFRHGGRFPVLSYYHKKNGMVIMRSGQPLTGTNGRRCKEDEKLINATLRAGKRGYIIDTRSLNVAQQTRAKGGGFEQEAHYPQWRRIHKSIERYHILQESLIKLVEACNDQTHNMDRWLSKLEASNWLTHIKEILTTACLAAQCIDREGASILIHGTEGTDSTLQVTSLAQIILEPRSRTIRGFEALIEREWLQAGHPFQQRCAQSAYCNTKQKWEAPVFLLFLDCVWQILRQFPCSFEFNENFLIMLFEHAYASQFGTFLGNNESERCKLKLQQKTMSLWSWVNQPSELSKFTNPLFEANNLVIWPSVAPQSLPLWEGIFLRWNRSSKYLDEAYEEMVNIIEYNKELQAKVNILRRQLAELETEDGMQESP
partner: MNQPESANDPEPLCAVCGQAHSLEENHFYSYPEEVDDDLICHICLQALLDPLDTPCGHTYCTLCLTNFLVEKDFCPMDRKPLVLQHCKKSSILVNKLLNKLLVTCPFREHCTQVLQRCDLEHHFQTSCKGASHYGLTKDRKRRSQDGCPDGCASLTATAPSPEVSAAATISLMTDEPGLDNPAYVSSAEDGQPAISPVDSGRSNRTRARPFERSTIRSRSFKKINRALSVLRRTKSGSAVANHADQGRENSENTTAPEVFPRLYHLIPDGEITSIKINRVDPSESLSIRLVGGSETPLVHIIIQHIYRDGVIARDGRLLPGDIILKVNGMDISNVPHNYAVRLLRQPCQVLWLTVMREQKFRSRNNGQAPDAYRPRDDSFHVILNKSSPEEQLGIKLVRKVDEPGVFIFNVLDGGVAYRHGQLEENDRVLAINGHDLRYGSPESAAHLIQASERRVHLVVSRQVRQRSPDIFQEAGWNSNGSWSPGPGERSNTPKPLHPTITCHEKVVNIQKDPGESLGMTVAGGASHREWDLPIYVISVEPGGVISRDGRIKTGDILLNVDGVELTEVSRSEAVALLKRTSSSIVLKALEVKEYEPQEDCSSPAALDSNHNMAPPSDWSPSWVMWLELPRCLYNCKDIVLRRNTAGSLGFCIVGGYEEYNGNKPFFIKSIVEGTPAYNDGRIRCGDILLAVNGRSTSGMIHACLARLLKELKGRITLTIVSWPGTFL
B4: Genetic suppressor element 1 (Homo sapiens), Q14687 (parent)
chain: B2 chain
partner: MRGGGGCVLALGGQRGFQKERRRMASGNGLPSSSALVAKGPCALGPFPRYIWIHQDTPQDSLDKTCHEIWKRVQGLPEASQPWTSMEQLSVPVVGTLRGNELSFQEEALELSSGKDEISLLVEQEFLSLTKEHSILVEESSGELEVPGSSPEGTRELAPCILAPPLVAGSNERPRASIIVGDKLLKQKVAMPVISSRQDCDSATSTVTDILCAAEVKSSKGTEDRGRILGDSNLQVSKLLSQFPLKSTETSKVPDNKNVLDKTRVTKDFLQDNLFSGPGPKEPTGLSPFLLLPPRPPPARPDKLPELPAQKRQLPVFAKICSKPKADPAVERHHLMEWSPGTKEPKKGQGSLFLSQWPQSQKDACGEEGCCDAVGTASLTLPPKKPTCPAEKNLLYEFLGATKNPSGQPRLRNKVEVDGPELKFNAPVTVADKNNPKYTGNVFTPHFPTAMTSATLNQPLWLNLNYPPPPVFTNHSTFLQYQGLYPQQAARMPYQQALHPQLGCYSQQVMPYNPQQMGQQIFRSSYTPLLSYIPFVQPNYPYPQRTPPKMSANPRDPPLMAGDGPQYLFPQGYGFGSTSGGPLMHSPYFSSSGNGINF

Variants of: B1
Details: with ikzf1_human IKZF1, Q13422
Chain of ikzf1_human IKZF1, Q13422 (Q13422 whole entry): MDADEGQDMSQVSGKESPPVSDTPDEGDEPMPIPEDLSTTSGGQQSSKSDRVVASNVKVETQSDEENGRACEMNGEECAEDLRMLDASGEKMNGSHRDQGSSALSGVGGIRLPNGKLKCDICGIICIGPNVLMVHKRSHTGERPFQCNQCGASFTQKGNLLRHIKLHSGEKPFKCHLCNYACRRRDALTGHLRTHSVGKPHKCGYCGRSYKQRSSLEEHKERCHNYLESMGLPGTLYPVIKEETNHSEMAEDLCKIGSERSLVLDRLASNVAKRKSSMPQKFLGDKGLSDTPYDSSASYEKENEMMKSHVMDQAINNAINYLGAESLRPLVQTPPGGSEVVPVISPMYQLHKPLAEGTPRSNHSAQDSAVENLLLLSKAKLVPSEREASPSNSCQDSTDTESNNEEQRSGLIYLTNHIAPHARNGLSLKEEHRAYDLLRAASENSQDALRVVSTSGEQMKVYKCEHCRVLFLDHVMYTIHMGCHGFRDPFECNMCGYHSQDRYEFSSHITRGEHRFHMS
For R64H, the “effect of a mutation on the interaction” value was “with no effect”.

Variants of: B2
Details: with goga2_human GOLGA2, Q08379
For R503Q, the “effect of a mutation on the interaction” value was “with no effect”.

Variants of: B2
Details: with goga2_human GOLGA2, Q08379
Remark: another data set of the same source
With E368K the “effect of a mutation on the interaction” value was “with no effect”.

Variants of: B3
Details: with lnx1_human LNX1, Q8TBB1
With R359S the “effect of a mutation on the interaction” value was “with no effect”.

Variants of: B4
Details: with ca094_human C1orf94, Q6P1W5
For R503Q, the “effect of a mutation on the interaction” value was “with no effect”.

Variants of: B4
Details: with ca094_human C1orf94, Q6P1W5
Remark: another data set of the same source
E368K was tested, and the “effect of a mutation on the interaction” value was “with no effect”.
